# Test results published in patent publication US20060281072A1 (CRUCELL HOLLAND B V, published 2006).
# Assays:
# human OX40-receptor [1] = target: T1, human OX40-receptor (human, UniProt P43489 29-277); assay: flow cytometry on OX40-receptor transfected (filled) and mock-transfected (open) PER.C6 cells, anti-human IgG PE, IgG1 at 20 µg/ml
# T1 construct: whole, on cells; also called CD134; ACT-4
# T1 sequence (looked up): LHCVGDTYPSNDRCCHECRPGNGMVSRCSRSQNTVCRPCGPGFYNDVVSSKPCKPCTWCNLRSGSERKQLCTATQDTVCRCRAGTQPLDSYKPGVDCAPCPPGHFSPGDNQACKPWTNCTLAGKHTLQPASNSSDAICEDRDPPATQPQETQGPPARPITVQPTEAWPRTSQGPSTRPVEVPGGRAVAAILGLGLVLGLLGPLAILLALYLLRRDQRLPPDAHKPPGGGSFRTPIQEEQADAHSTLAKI
# Protocol: The anti-OX40 receptor IgG1 antibodies were validated for their ability to bind to PER.C6™ cells transfected with human OX40-receptor. To this purpose mock- and human OX40-receptor-transfected cells were stained with the IgG1 antibodies at a concentration of 20 μg/ml at 4° C. Binding of the antibodies called 008, 011, 021 and 023 was visualized using biotinylated goat-anti-human IgG (Fc specific, Caltag) followed by streptavidin-phyco-erythrin (Caltag). The stained cells were analyzed by flow cytometry.
# [2] = target: T2, human OX40-Ig fusion protein (human, UniProt P43489 29-214); assay: phage ELISA on coated human OX40-Ig, anti-M13 peroxidase, absorbance at 492 nm
# T2 construct: extracellular domain; Bought (Alexis Biochemicals); not shown: CH2 and CH3 domains of human IgG1
# T2 sequence (looked up): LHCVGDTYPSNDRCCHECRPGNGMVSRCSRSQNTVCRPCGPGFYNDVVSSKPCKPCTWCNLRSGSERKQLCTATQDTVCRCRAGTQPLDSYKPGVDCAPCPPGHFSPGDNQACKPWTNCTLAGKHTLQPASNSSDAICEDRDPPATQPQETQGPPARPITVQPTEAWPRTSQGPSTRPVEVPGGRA
# Protocol: Selected phage antibodies that were obtained in the screen described above, were validated in ELISA for specificity. For this purpose, human OX40-Ig was coated to Maxisorp™ ELISA plates. After coating, the plates were blocked in 2% MPBS. The selected phage antibodies were incubated in an equal volume of 4% MPBS. The plates are emptied, washed once in PBS, after which the blocked phages were added. Incubation was allowed to proceed for 1 hour, the plates were washed in PBS containing 0.1% Tween-20 and bound phages were detected using an anti-M13 antibody conjugated to peroxidase. As a control, the procedure was performed simultaneously using a control phage antibody directed against thyroglobulin (De Kruif et al. 1995a and 1995b), which served as a negative control.
# human OX40-receptor [3] = target: T1, human OX40-receptor; assay: flow cytometry, mix of OX40-receptor transfected (green, PKH67) and control transfected PER.C6 cells, M13 anti-phage PE
# Protocol: In another assay the phage antibodies were analyzed for their ability to bind PER.C6™ cells that recombinantly express human OX40-receptor. To this purpose PER.C6™ cells were transfected with a plasmid carrying a cDNA sequence encoding human OX40-receptor or with the empty vector and stable transfectants were selected using standard techniques known to a person skilled in the art (Coligan et al., 2001). For flow cytometry analysis, phage antibodies were first blocked in an equal volume of 4% MPBS for 15 minutes at 4° C. prior to the staining of the OX40-receptor- and control transfected PER.C6™ cells. The blocked phages were added to a mixture of unlabelled control transfected PER.C6™ cells and OX40-receptor transfected PER.C6™ cells that were labelled green using a lipophylic dye (PKH67, Sigma). The binding of the phage antibodies to the cells was visualized using a biotinylated anti-M13 antibody (Santa Cruz Biotechnology) followed by streptavidin-phycoerythrin (Caltag).
# human OX40-receptor [4] = target: T1, human OX40-receptor; assay: flow cytometry on tonsil mononuclear cells, M13 anti-phage PE against CD4 FITC
# human OX40-receptor [5] = target: T1, human OX40-receptor; assay: flow cytometry on tonsil mononuclear cells, M13 anti-phage APC against CD4 FITC
# Protocol: Inflamed tonsils were obtained from patients undergoing routine tonsillectomy. Tonsils were minced and the MNC fraction was isolated by density centrifugation. Flow cytometric analysis of the binding of the anti-OX40-receptor phage antibodies to the OX40+ CD4+ T-cells was performed as described above. The CD4+ T-cells were distinguished from total tonsil MNC using a FITC conjugated antibody against CD4. As shown in FIGS. 3A and 3B the selected anti-human OX40-receptor phage antibodies called SC02008, SC02009, SC02010, SC02011, SC02012 and SC02021 selectively stain a subset of CD4+ T-cells within tonsil and synovial fluid mononuclear cells respectively, while they display minor staining of peripheral blood CD4+ T-cells (FIG. 3C).
Binder,binding result (human OX40-receptor [1]),binding result [2],also measured
"human IgG1 antibody 021 (antibody, V domains shown, Human IgG1 made from scFv SC02021, expressed in PER.C6 cells; also called pgG102-021C01) VH: EVQLVESGGGLVQPRGSLRLSCAASGFTFSSYAMNWVRQAPGKGLEWVAVISYDGSNKYYADSVKGRFTISRDNSKNTLYLQMNSLRAEDTAVYYCAKDRYITLPNALDYWGQGTLVTVSS VL: not shown",binds,,
phage antibody SC02011 (scFv) (scFv) scFv: MAEVQLVESGGGVVQPGRSLRLSCAASGFTFSDYTMNWVRQAPGKGLEWVSSISGGSTYYADSRKGRFTISRDNSKNTLYLQMNNLRAEDTAVYYCARDRYFRQQNAFDYWGQGTLVTVLEGTGGSGGTGSGTGTSELDIQMTQSPVTLPVTPGEPASISCRSSQSLLHSNGYNYLDWYLQKPGQSPQLLIYLGSNRASGVPDRFSGSGSGTDFTLKISRVEAEDVGVYYCQQYLTAPPTFGQGTKLEIKRAA,,binds,binding result (human OX40-receptor [3]): binds
phage antibody SC02012 (scFv) (scFv) scFv: MAEVQLVESGGGLVKPGGSLRLSCAASGFTFSNDSMNWMRQAPGKGLEWVANINQDGNEKYYADSVKGRFTISRDNSKNSLYLQMNSLRDEDTALYYCARARAAGTIFDYWGQGTLVTVLEGTGGSGGTGSGTGTSELDIQMTQSPSSLSASVGDRVTITCRASQNVSNYLTWYQQKPGKAGKLLIYAASSLQSGVPSRFSGSGSGTDFTLTISSLQPEDFATYYCQQSYFNPATFGQGTKLEIKRAA,,binds,binding result (human OX40-receptor [3]): binds
"phage antibody SC02022 (scFv) (scFv, selected on OX40+ CD4+ T-cells) scFv: MAEVQLVESGGGLVHPGGSLRLSCAGSGFTFSSYAMHWVRQAPGKGLEWVSAIGTGGGTYYADSVQGRFTISRDNAKNSLYLQMNSLRAEDTAVYYCARYDEPLTIYWFDSWGQGTLVTVSSGGGGSGGGGSGGGGSEIELTQSPATLSLSPGERATLSCRASQSVSSYLAWYQQKPGQAPRLLIYDASNRATGIPARFSGSGSGTDFTLTISSLEPEDFAVYYCQQRSNWPPAFGGGTKVEIKRAA",,,binding result (human OX40-receptor [4]): binds
"phage antibody SC02023 (scFv) (scFv, selected on OX40+ CD4+ T-cells) scFv: MAEVQLVESGGGLVHPGGSLRLSCAGSGFTFSSYAMHWVRQAPGKGLEWVSAIGTGGGTYYADSVMGRFTISRDNSKNTLYLQMNSLRAEDTAVYYCARYDNVMGLYWFDYWGQGTLVTVSSGGGGSGGGGSGGGGSEIELTQSPATLSLSPGERATLSCRASQSVSSYLAWYQQKPGQAPRLLIYDASNRATGIPARFSGSGSGTDFTLTISSLEPEDFAVYYCQQRSNWPPAFGGGTKVEIKRAA",,,binding result (human OX40-receptor [4]): binds
"human IgG1 antibody 023 (antibody, V domains shown, Human IgG1 made from scFv SC02023, expressed in PER.C6 cells; also called pgG102-023C01) VH: EVQLVESGGGLVHPGGSLRLSCAGSGFTFSSYAMHWVRQAPGKGLEWVSAIGTGGGTYYADSVMGRFTISRDNSKNTLYLQMNSLRAEDTAVYYCARYDNVMGLYWFDYWGQGTLVTVSS VL: EIVLTQSPATLSLSPGERATLSCRASQSVSSYLAWYQQKPGQAPRLLIYDASNRATGIPARFSGSGSGTDFTLTISSLEPEDFAVYYCQQRSNWPPAFGGGTKVEIKR",binds,,
"phage antibody SC02008 (scFv) (scFv, the phage coat protein fusion is not described) scFv: MAEVQLVESGGGLVQPGGSLRLSCAASGFTFSNYTMNWVRQAPGKGLEWVSAISGSGGSTYYADSVKGRFTISRDNSKNTLYLQMNSLRAEDTAVYYCAKDRYSQVHYALDYWGQGTLVTVLEGTGGSGGTGSGTGTSELDIQMTQSPDSLPVTPGEPASISCRSSQSLLHSNGYNYLDWYLQKAGQSPQLLIYLGSNRASGVPDRFSGSGSGTDFTLKISRVEAEDVGVYYCQQYYNHPTTFGQGTKLEIKRAA",,binds,binding result (human OX40-receptor [5]): binds
"human IgG1 antibody 008 (antibody, V domains shown, Human IgG1 made from scFv SC02008, expressed in PER.C6 cells; also called pgG102-008C01) VH: EVQLVESGGGLVQPGGSLRLSCAASGFTFSNYTMNWVRQAPGKGLEWVSAISGSGGSTYYADSVKGRFTISRDNSKNTLYLQMNSLRAEDTAVYYCAKDRYSQVHYALDYWGQGTLVTVSS VL: not shown",binds,,
"human IgG1 antibody 011 (antibody, V domains shown, Human IgG1 made from scFv SC02011, expressed in PER.C6 cells; also called pgG102-011C01) VH: EVQLVESGGGVVQPGRSLRLSCAASGFTFSDYTMNWVRQAPGKGLEWVSSISGGSTYYADSRKGRFTISRDNSKNTLYLQMNNLRAEDTAVYYCARDRYFRQQNAFDYWGQGTLVTVSS VL: not shown",binds,,
